Assay [1] deals with T1, IL-32alpha (ImmunoTools) (human, UniProt P24001-4 1-131, limits assumed).
T1 construct: Bought from ImmunoTools; also called IL-32α
T1 sequence (looked up): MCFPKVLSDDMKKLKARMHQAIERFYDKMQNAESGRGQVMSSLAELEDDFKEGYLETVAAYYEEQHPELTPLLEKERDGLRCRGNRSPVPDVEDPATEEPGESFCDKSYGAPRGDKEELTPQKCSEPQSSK
The experiment in a line: ELISA, antigen coated on plate. How it is done: (§1) EC50 binding of exemplary anti-IL-32 antibodies of the present invention to IL-32γ (R&D) or IL-32α (ImmunoTools), was determined by ELISA. Serial dilutions of MABs (from 100,000 ng/ml down to 1.69 ng/ml) were incubated for 2 hours with antigen-coated plates (coating overnight at 1 μg/ml in PBS, followed by wash out and blocking with 2% BSA in PBS). The plates were subsequently washed and binding of MABs was detected with anti-human HRP-conjugated Fc-gamma-specific secondary antibody (Jackson ImmunoResearch, Europe Ltd., Cambridgeshire, UK). Concentrations of MAB resulting in half of maximal binding to respective antigens (EC50, ng/ml) were calculated using Prism 4 GraphPad software on sigmoidal dose-response curves (variable slope, 4 parameters) obtained by plotting the log of the concentration versus OD 450 nm measurements; for the results see FIG. 3 and Table 4 below.

The target of assay [2] is T1, IL-32alpha (ImmunoTools). The experiment in a line: ELISA, antigen coated at 1 µg/ml, serial dilutions of MAB. How it is done:
as §1
A general note: ELISA stands for enzyme-linked immunosorbent assay.

B1: anti-IL-32 antibody 14B3 (IgG1, lambda) (antibody)
heavy: not shown
light: SYELTQPPSVSVSPGQTARITCSGDALPETYVYWYQQKSGQAPVKLIYEDSERPSGIPERFSGSSSGTLATLTISGAHVEDEADYYCYSTDSSGIGVFGGGTKLTVLSQPKAAPSVTLFPPSSEELQANKATLVCLISDFYPGAVTVAWKADSSPVKAGVETTTPSKQSNNKYAASSYLSLTPEQWKSHKSYSCQVTHEGSTVEKTVAPTECS
notes: also called MAB 14B3
For the molecule B1, the binding result with IL-32alpha (ImmunoTools) [1] was “no binding (tested: 100 ug/ml (highest concentration tested))”.

B2: anti-IL-32 antibody 19A1 (IgG1, lambda) (antibody)
heavy: not shown
light: B1 light
notes: also called MAB 19A1
Turning to B2, the binding result with IL-32alpha (ImmunoTools) [1] is “no binding (tested: 100 ug/ml (highest concentration tested))”.

B3: anti-IL-32 antibody 26A6 (IgG1, lambda) (antibody, V domains shown)
VH: QVQLVESGGGVVQPGRSLRLSCVASGLTFRTYGMHWVRQAPGNGLEWVAIIWHDGNKKYFADSVKGRFTISRDNSKNSLYLQMNSLRVEDTAVYYCAREMNGIDVWGQGTTVTVSS
VL: SYELTQPPSVSVSPGQTARITCSGDALPETYVYWYQQKSGQAPVKLIYEDSERPSGIPERFSGSSSGTLATLTISGAHVEDEADYYCYSTDSSGIGVFGGGTKVTVLS
notes: IgG1, lambda; also called MAB 26A6
With B3, the binding result with IL-32alpha (ImmunoTools) [1] is recorded as “no binding (tested: 100 ug/ml (highest concentration tested))”.

B4: anti-IL-32 antibody 2C2 (IgG3, lambda) (antibody, V domains shown)
VH: QLRVQESGPGLLKPAETLSLTCSVSSGSVSNSRYYWAWIRQSPGKGLEWIGSMYYRGRSYYNPSLKSRLTISIDTSKNQFSLKLTSLTAADTAVYYCAAAVYHDLDYWGQGTLVTVSS
VL: QSVLTQPPSVSAAPGQKVTISCSGSGSSIGNNYVSWYQQLPGAAPKLLIYDNTKRPSGIPDRFSGSKSGTSATLAITGLQPGDAADYYCGTWDSSFSVFWVFGGGTKLTVLS
notes: Human patient-derived antibody, recombinantly expressed; the chains are put together from these; also called MAB 2C2; exemplary anti-IL-32 2C2 antibody
Take B4: the EC50 (as a rule, the concentration giving half of the maximal effect) in the assay with IL-32alpha (ImmunoTools) [2] was over 30 mg/L.
